For data set [1], the target named is T1, CqJHE (Culex quinquefasciatus, UniProt R4HZP1).
T1 construct: gene jhe; full-length cDNA (ORF 1746 nt) from 4th instar larvae, predicted 19-residue signal peptide removed on secretion, mature 563 residues, 63,430 Da; recombinant baculovirus AcCqJHE in High Five cells, secreted
T1 sequence (R4HZP1 20-582): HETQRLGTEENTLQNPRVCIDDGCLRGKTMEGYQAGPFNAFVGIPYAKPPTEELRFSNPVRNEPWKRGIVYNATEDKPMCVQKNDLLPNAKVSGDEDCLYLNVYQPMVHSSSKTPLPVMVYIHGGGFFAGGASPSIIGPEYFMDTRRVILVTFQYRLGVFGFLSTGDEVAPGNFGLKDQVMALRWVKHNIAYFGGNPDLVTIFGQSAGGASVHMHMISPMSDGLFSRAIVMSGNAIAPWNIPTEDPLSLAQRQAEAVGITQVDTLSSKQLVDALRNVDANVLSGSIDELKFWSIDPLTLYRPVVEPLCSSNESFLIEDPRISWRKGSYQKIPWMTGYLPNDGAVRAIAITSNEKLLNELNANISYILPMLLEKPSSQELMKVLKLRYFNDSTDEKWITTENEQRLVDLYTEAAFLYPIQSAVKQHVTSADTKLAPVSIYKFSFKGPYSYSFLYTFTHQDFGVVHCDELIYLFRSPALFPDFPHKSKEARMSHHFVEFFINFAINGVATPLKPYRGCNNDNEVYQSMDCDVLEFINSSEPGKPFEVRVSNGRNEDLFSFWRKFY
Nature of the data set: competition in JH III partition assay. Format: biochemical.

Data set [2] has as its target T1, CqJHE. Nature of the data set: JH III partition assay (radiolabelled JH III), […] min preincubation. The format is biochemical.
Substrate in data set [3]: COC(=O)/C=C(\C)CC/C=C(\C)CC[C@H]1OC1(C)C
Nature of the data set: JH III partition assay (radiolabelled JH III). Format: biochemical, Culex quinquefasciatus. The note with it: 50 mM sodium phosphate pH 7.4, 30°C. The source says:
JH III partition assay (radiolabelled JH III) on CqJHE

Substrate in data set [4]: CC(=O)Oc1ccc([N+](=O)[O-])cc1
Nature of the data set: spectrophotometric, OD405. Format: biochemical, Culex quinquefasciatus. Particulars: 50 mM sodium phosphate pH 7.4, 30°C. The source says:
spectrophotometric, OD405 on CqJHE

Substrate in data set [5]: CC(=O)Oc1cccc2ccccc12
Nature of the data set: spectrophotometric, OD450. The format is biochemical, Culex quinquefasciatus. The note with it: glycine-NaOH pH 9.0, 30°C. The source says: spectrophotometric, OD450 on CqJHE

What is called inhibition is the drop in the measured response relative to a control, in per cent. The low end stands for a response near the control, the high end for a response far below the control. Consider `CCOC(=O)/C=C(C)/C=C/C[C@@H](C)CCCC(C)C` [hydroprene], for which the inhibition at 5 µM in data set [1] amounted to 40%.
Turning to `C#CCOC(=O)/C=C(C)/C=C/CC(C)CCCC(C)C` (stereo not drawn) [kinoprene], the inhibition at 5 µM in data set [1] came to 50%.
As usually defined, the IC50 is the point on the concentration scale where inhibition reaches its midpoint. Low values mean greater potency in that assay, high ones weaker potency in that assay. As for `CCCCCCCCSCC(=O)C(F)(F)F` [OTFP, 3-octylthio-1,1,1-trifluoropropan-2-one], in data set [2], 0.23 ± 0.05 nM corresponded to half-maximal inhibition (IC50).

B1: CqJHE (Culex quinquefasciatus) (protein)
chain: T1 sequence (R4HZP1 20-582)
notes: full-length cDNA (ORF 1746 nt) from 4th instar larvae, predicted 19-residue signal peptide removed on secretion, mature 563 residues, 63,430 Da; recombinant baculovirus AcCqJHE in High Five cells, secreted
A word on the Km: it is the substrate concentration at which the rate is half of its maximum. Broadly, the Vmax is the top rate of the reaction or transport when substrate is in excess. The kcat is the maximal rate divided by the concentration of active sites. Broadly, the kcat/Km is the turnover number divided by the Michaelis constant. On to B1, for which, in data set [3], the Km was found to be 0.13 ± 0.02 µM, the Vmax was 1.2 µmol/min/mg, the kcat came out at 1.3 s⁻¹ and the kcat/Km was 1e+07 M⁻¹ s⁻¹. Besides, in data set [4], the Km amounted to 340 ± 17 µM, the maximum rate (Vmax) amounted to 120 µmol/min/mg, the kcat worked out at 130 s⁻¹ and the kcat/Km is 380000 M⁻¹ s⁻¹. In data set [5], the Km was 2960 ± 420 µM, the Vmax amounted to 20 µmol/min/mg, the kcat is 21 s⁻¹ and the kcat/Km was determined as 7100 M⁻¹ s⁻¹.

Values taken from publication PMC3235118, “Juvenile Hormone (JH) Esterase of the Mosquito Culex quinquefasciatus Is Not a Target of the JH Analog Insecticide Methoprene” (PLoS ONE, 2011).
